In article PMC3639893, “Characterization of a Novel Metal-Dependent D-Psicose 3-Epimerase from Clostridium scindens 35704” (PLoS ONE, 2013):

Target: the molecule itself
Assay: SEC; gel filtration of the purified native enzyme, buffer and standards not told

B1: D-psicose 3-epimerase from Clostridium scindens ATCC 35704 (hypothetical protein CLOSCI_02528) (enzyme, UniProt B0NGC5 1-289, looked up)
chain: MKHGIYYAYWEQEWAADYKRYVEKAAKLGFDILEVGAAPLPDYSAQEVKELKKCADDNGIQLTAGYGPAFNHNMGSSDPKIREEALQWYKRLFEVMAGLDIHLIGGALYSYWPVDFATANKEEDWKHSVEGMQILAPIASQYGINLGMEVLNRFESHILNTSEEGVKFVTEVGMDNVKVMLDTFHMNIEESSIGDAIRHAGKLLGHFHTGECNRMVPGKGRTPWREIGDALREIEYDGTVVMEPFVRMGGQVGSDIKVWRDISKGAGEDRLDEDARRAVEFQRYMLEWK
notes: D-psicose 3-epimerase (hypothetical protein CLOSCI_02528, protein ID ZP_02432283) of Clostridium scindens ATCC 35704; full-length synthetic gene cloned NdeI/XhoI into pET-22b(+); No removal of the C-terminal 6xhistidine tag is described; Metal-free after dialysis against EDTA; Subunit about 32 kDa by SDS-PAGE, native enzyme about 125 kDa by gel filtration; also called C. scindens DPEase; DPEase
  stoichiometry N: 4
